Assay results as given in patent US20150004637A1, “SYSTEMS AND METHODS FOR IMAGING AT HIGH SPATIAL AND/OR TEMPORAL PRECISION” (President and Fellows of Harvard College, priority 2011, published 2015).
Read-outs that look alike come from different tables or passages of the source.

What was measured:
[1] = Spectroscopic characterization of Arch WT and D95N (absorption, emission, extinction, quantum yield); type: physicochemical; details: for λmax em: Excitation at λ=532 nm; for ε633: assuming same peak extinction coefficient as Bacteriorhodopsin, 63,000 M^−1 cm^−1; for QY (fluorescence quantum yield): comparison to Alexa 647, excitation at λ=633 nm; for λmax abs: neutral pH
Procedure: Arch and its D95N mutant were expressed in E. coli. Briefly, E. coli (strain BL21, pet28b plasmid) was grown in 1 L of LB with 100 micrograms/mL kanamycin, to an O.D 600 of 0.4 at 37° C. All-trans retinal (5 micromolar) and inducer (IPTG 0.5 mM) were added and cells were grown for an additional 3.5 hours in the dark. Cells were harvested by centrifugation and resuspended in 50 mM Tris, 2 mM MgCl2 at pH 7.3 and lysed with a tip sonicator for 5 minutes. The lysate was centrifuged and the pellet was resuspended in PBS supplemented with 1.5% dodecyl maltoside (DM). The mixture was homogenized with a glass/Teflon Potter Elvehjem homogenizer and centrifuged again. The solubilized protein in the supernatant was used for experiments.
(§1) (2) Spectroscopic characterization of Arch WT and D95N. The absorption spectra of fractionated E. coli membranes containing Arch WT and D95N were determined using an Ocean Optics USB4000 spectrometer with a DT-MINI-2-GS light source (FIG. 8). The peak extinction coefficients of microbial rhodopsins vary across rhodopsin types from 48,000 to 63,000 M^−1 cm^−1. Due to the high homology between Arch and bacteriorhodopsin (BR), the BR extinction coefficient, 63,000 M^−1 cm^−1, was used for Arch. […] For Arch WT, 633 nm was in the tail of the absorption while for Arch D95N 633 nm lay halfway down the shoulder. The relative extinction coefficients of Arch WT and D95N at 633 nm was independent of the choice to use BR as the reference for the peak extinction coefficient. Absorption spectra for Arch WT and D95N were measured as a function of pH between pH 6 and 11.
The fluorescence emission spectra of Arch WT and D95N were determined using illumination with a 100 mW, 532 nm laser (Dragon Lasers, 532GLM100) or a 25 mW, 633 nm HeNe laser (Spectra-Physics) (FIG. 8). Scattered laser light was blocked with a 532 nm Raman notch filter (Omega Optical, XR03) or a 710/100 emission filter (Chroma), and fluorescence was collected perpendicular to the illumination with a 1000 micron fiber, which passed the light to an Ocean Optics QE65000 spectrometer. Spectra were integrated for 2 seconds. Arch WT and D95N both had emission maxima at 687 nm.
The fluorescence quantum yields of Arch WT and D95N were determined by comparing the integrated emission intensity to emission of a sample of the dye Alexa 647. Briefly, the concentrations of micromolar solutions of dye and protein were determined using a visible absorption spectrum. The extinction coefficients of 270,000 M^−1cm^−1 for Alexa 647 and 63,000 M^−1 cm^−1 for Arch WT and D95N were used, assuming that these microbial rhodopsins have the same extinction coefficient as bacteriorhodopsin. […] The fluorescence emission spectra of dye and protein samples were measured with 633 nm excitation. The quantum yield was then determined by the formula
where Fl is the integrated fluorescence from 660 to 760 nm, epsilon (∈) is the extinction coefficient at 633 nm and c is the concentration.

HEK cells [2] = experiment: Photocurrents under voltage clamp; type: cell-based; details: for Photocurrent: HEK cells clamped at V=0, 640 nm, 1800 W/cm^2
Procedure: Measurements of photocurrents were performed on HEK cells held in voltage clamp at 0 mV while being exposed to brief (200 ms) pulses of illumination at 640 nm at an intensity of 1800 W/cm^2.

[3] = pKa of the Schiff base from absorption spectra versus pH; type: physicochemical; details: singular value decomposition on absorption spectra, pH 6-11
Procedure: FIG. 8C illustrates absorption spectra recorded on purified protein between about pH 6 and about pH 11. Singular Value Decomposition of absorption spectra between 400-750 nm was used to calculate the fraction of the SB in the protonated state as a function of pH. The result was fit to a Hill function to determine the pKa of the SB.
as §1

HEK cells [4] = experiment: Frequency response and noise of membrane potential estimated from fluorescence; type: cell-based; details: for noise / accuracy of voltage estimated from fluorescence: HEK cells, after calibration with voltage ramp −150 to +150 mV; for Noise in V̂FL: frequencies f≧0.1 Hz in HEK cells
Procedure: For the data of FIG. 9, a chirped sine wave with an amplitude of about 50 mV and frequency from about 1 Hz to about 1 kHz was applied to the cell. Membrane potential VFL was determined from fluorescence and the Fourier transform of VFL was calculated. The uptick at about 1 kHz is an artifact of electronic compensation circuitry. […] The noise figures reported here are specific to our imaging system and serve primarily as an indicator of the possible sensitivity of Arch.
(8) Frequency-dependent response functions of Arch WT and D95N. Test waveforms consisted of a concatenated series of sine waves, each of duration 2 s, amplitude 100 mV, zero mean, and frequencies uniformly spaced on a logarithmic scale between 1 Hz and 1 kHz (31 frequencies total). The waveforms were discretized at 10 kHz and applied to the cell, while fluorescence movies were acquired at a frame rate of 2 kHz.
The model parameters for extracting VFL(t) were calculated from the fluorescence response to low frequency voltages. These parameters were then used to calculate an estimated voltage at all frequencies.
The applied voltage was downsampled to 2 kHz to mimic the response of a voltage indicator with instantaneous response. For each applied frequency, the Fourier transform of VFL(t) was calculated and divided by the Fourier transform of the downsampled V(t). The amplitude of this ratio determined the response sensitivity. It was important in some cases to properly compensate pipette resistance and cell membrane capacitance to obtain accurate response spectra.
The power spectrum of VFL(t) under constant V=0 was also measured to enable calculations of signal-to-noise ratio for any applied V(t).
In these examples, a measure of the performance of a voltage indicator which reported the information content of the fluorescence signal was used, including an algorithm to infer membrane potential from a series of fluorescence images. The accuracy with which the estimated membrane potential matched the true membrane potential was used (as reported by patch clamp recording) as a measure of indicator performance.
The estimated membrane potential, VFL(t), was determined from the fluorescence in two steps. First a model was trained relating membrane potential to fluorescence at each pixel. A highly simplified model that the fluorescence signal, Si(t), at pixel i and time t, is given by: […]

HEK cells [5] = experiment: Step response of fluorescence to membrane potential steps; type: cell-based; details: for Approx response time: Table 2, described herein; for τresponse: determined from step-response
Procedure: The step response was measured in a similar manner, except that test waveforms consisted of a series of voltage pulses, from −70 mV to +30 mV with duration 300 ms and period 1 s. Cells were subjected to 20 repetitions of the waveform, and the fluorescence response was averaged over all iterations.

[6] = steps between −70 mV and +30 mV

Molecule | λmax em [1] [nm] | ε633 [1] | QY (fluorescence quantum yield) [1] | λmax abs [1] [nm] | Photocurrent (HEK cells [2]) | pKa of SB [3] | noise / accuracy of voltage estimated from fluorescence (HEK cells [4]) | Noise in V̂FL (HEK cells [4]) [μV/Hz^1/2] | Approx response time (HEK cells [5]) [ms] | τresponse (HEK cells [5]) [ms] | other results
Archaerhodopsin 3 (protein, Halorubrum sodomense, Microbial rhodopsin from Halorubrum sodomense, light-driven proton pump used as fluorescent voltage indicator; experiments used an Arch-eGFP fusion) MDPIALQAGYDLLGDGRPETLWLGIGTLLMLIGTFYFLVRGWGVTDKDAREYYAVTILVPGIASAAYLSMFFGIGLTEVTVGGEMLDIYYARYADWLFTTPLLLLDLALLAKVDRVTIGTLVGVDALMIVTGLIGALSHTAIARYSWWLFSTICMIVVLYFLATSLRSAAKERGPEVASTFNTLTALVLVLWTAYPILWIIGTEGAGVVGLGIETLLFMVLDVTAKVGFGFILLRSRAILGDTEAPEPSAGADVSAAD | 687 | 6,300 M^−1 cm^−1 | 9 × 10^−4 | 558 | yes | 10.1 | about 625 μV/(Hz)^1/2 | 625 | <0.5 | < 0.5 | λmax em ([1]; listed as Arch): ≈ 687 nm; QY (fluorescence quantum yield) ([1]; listed as Arch): about 9×10^−4; outward photocurrent induced by imaging laser (HEK cells [2]; HEK cells, 640 nm): 10-20 pA; fluorescence oscillation amplitude retained relative to low-frequency amplitude (HEK cells [4]; sinusoidal membrane potential, f≈1 kHz): about 55%; shot-noise limited noise floor in V̂FL (HEK cells [4]; voltage clamp at constant V=0 mV, frequencies above about 10 Hz): about 470 μV/(Hz)^1/2; time for 90% of step response (HEK cells [5]): < 0.5 ms
Arch D95N: Archaerhodopsin 3 with aspartic acid 95 mutated to asparagine; non-pumping voltage indicator (protein, UniProt P96787 7-258, looked up, variant D95N) Archaerhodopsin-3: QAGYDLLGDGRPETLWLGIGTLLMLIGTFYFLVRGWGVTDKDAREYYAVTILVPGIASAAYLSMFFGIGLTEVTVGGEMLDIYYARYANWLFTTPLLLLDLALLAKVDRVTIGTLVGVDALMIVTGLIGALSHTAIARYSWWLFSTICMIVVLYFLATSLRSAAKERGPEVASTFNTLTALVLVLWTAYPILWIIGTEGAGVVGLGIETLLFMVLDVTAKVGFGFILLRSRAILGDTEAPEPSAGADVSAAD | 687 | 37,500 M^−1 cm^−1 | 4 × 10^−4 | 585 | no | 8.9 | 260 μV/(Hz)^1/2 | 260 | 41 | 41 | λmax abs ([1]; listed as Arch^D95N): about 585 nm; λmax abs ([1]; listed as D95N): 585 nm; photocurrent / proton pumping (words) (HEK cells [2]): lacked endogenous proton pumping; photocurrent / proton pumping (words) (HEK cells [2]; listed as Arch 3 D95N): lacks photoinduced proton pumping; photocurrent / proton pumping (words) (HEK cells [2]; listed as D95N): eliminated the photocurrent; response time (HEK cells [5]): 41 ms; response time (HEK cells [5]; listed as Arch 3 D95N): 40 ms; fast component of step response (HEK cells [5]; [6]): < 500 μs; fraction of step response that is fast (HEK cells [5]; [6]): about 20%; time constant of slow component of step response (HEK cells [5]; [6]): 41 ms; fraction of step response that is fast (HEK cells [5]; steps between −70 mV and +30 mV, listed as ArchD95N): 20%
